According to the supplement of paper PMC10065799, “High-throughput profiling of sequence recognition by tyrosine kinases and SH2 domains using bacterial peptide display” (eLife, 2023):

biological target: Jak2 (UniProt O60674); experiment: phosphorylation enrichment, bacterial display (enrichment ratio); higher = better substrate or ligand; peptides without Tyr show the background
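Further: 11-residue human phosphosite peptides and single-mutation variants displayed on the E. coli surface, counted by deep sequencing, each peptide's frequency after selection divided by its frequency in the unselected input library; frequency after pTyr selection over input frequency; kinase dosed for 20-30% of maximal phosphorylation in three min.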

Sequence of Jak2 (O60674 whole entry, looked up): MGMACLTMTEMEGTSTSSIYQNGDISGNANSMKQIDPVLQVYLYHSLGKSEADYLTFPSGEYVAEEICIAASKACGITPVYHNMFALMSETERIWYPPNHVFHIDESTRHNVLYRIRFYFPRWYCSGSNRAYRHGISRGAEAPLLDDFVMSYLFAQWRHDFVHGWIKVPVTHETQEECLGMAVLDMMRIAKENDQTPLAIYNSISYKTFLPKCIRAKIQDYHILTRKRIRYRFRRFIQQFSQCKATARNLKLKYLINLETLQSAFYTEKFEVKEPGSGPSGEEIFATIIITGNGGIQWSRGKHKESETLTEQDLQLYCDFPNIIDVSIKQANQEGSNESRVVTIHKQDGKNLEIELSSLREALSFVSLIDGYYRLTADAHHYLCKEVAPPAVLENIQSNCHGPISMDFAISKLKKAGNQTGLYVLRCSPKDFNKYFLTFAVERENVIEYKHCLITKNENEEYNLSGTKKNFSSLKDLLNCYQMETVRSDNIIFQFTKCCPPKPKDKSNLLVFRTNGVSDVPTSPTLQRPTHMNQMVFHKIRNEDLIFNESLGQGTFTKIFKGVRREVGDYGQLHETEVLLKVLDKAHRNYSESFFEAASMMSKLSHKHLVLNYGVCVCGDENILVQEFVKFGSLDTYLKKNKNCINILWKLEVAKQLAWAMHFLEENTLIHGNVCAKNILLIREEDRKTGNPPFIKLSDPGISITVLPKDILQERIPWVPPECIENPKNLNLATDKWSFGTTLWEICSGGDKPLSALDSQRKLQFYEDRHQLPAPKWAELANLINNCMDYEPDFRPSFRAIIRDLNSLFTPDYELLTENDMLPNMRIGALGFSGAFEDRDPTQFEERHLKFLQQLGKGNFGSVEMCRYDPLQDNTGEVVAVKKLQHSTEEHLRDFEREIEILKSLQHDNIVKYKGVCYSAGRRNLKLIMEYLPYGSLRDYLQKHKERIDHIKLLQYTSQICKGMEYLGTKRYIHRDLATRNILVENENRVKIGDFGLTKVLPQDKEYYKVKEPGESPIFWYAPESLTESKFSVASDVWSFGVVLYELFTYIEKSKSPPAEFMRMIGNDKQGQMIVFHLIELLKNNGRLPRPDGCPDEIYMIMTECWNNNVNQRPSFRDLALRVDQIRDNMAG

Row | Sequence | phosphorylation enrichment
1 | EEQKKYYNAVK [SCN5A_Y1494_M1498V] | 0.625
2 | HNVPIYEGYGL [ACTA1_Y168_A172G] | 0.805
3 | EQKKFSNAMKK [SCN5A_Y1495_Y1495S_YF] | 0.315
4 | SDFFAYSPVQE [H6PD_Y449_R453Q_YF] | 1.36
5 | KKGIVYIFNGR [ITGAV_Y404] | 0.868
6 | DNEYAYLKAII [HNF4A_Y288] | 0.856
7 | GQAPGYSFTAA [CYCS_Y47_YF] | 0.471
8 | KFDLMYAKHAF [TUBA1A_Y399_R402H] | 0.805
9 | RGEKQYLAAPL [ALOX12_Y295] | 0.523
10 | PMFTKYGNGLL [RPGRIP1L_Y196_S199G] | 1.09
11 | KKFPDYIQIAR [SGMS2_Y59_M64R_YF] | 1.15
12 | RFVSRYIFNRE [HLA-DQB1_Y62_T60S_YF] | 2.14
13 | FIIFIYAMKKK [SLCO1B1_Y645_L643F_YF] | 2.04
14 | NQDRTYFERVR [SPEN_Y632_S635R_YF] | 0.601
15 | LRNIDYYRLDG [ATRX_Y2083] | 6.17
16 | ADRNHYRRYRR [YBX1_Y145_P149R] | 0.549
17 | SDMGQYQCLVF [AXL_Y115_T112M] | 0.933

Row | Sequence | phosphorylation enrichment
18 | DDLEVYLKHLL [SACS_Y3477] | 0.822
19 | PLQKIYNYNVL [SLC4A1_Y553_T552I] | 1.05
20 | LLEGKYEWQEV [CDKN1B_Y74_P69L] | 3
21 | STSYDYCRVPM [BST2_Y8] | 2.55
22 | GRLGEYDIDEV [SMS_Y134_V132G] | 1.27
23 | HITQVYGFYDE [PPP2CA_Y127_Q122H] | 1.88
24 | RFLERYIFNPE [HLA-DPB1_Y57_R61P_YF] | 1.39
25 | KSLFHHRQYSA [CPS1_Y1491_Y1491H] | 0.555
26 | KKKKQYKDKFL [CASK_Y708_YF] | 0.724
27 | DRLANYLEKVR [KRT40_Y103_S102N] | 0.587
28 | CGTPEYRAPEI [PRKACA_Y205_L206R] | 0.984
29 | EQYELYCEMGS [CBL_Y371] | 1.37
30 | DQLVKYGVNPG [TMPO_Y127] | 0.479
31 | CDIPRYIVSQL [MAST2_Y461] | 1.04
32 | PFTDPYFDFEI [ZC3H18_Y371_A368T_YF] | 2.84
33 | GMEIVYVFVKK [DNAI2_Y5_YF] | 1.59

biological target: Fyn (UniProt P06241); experiment: as above
Sequence (P06241 whole entry, looked up): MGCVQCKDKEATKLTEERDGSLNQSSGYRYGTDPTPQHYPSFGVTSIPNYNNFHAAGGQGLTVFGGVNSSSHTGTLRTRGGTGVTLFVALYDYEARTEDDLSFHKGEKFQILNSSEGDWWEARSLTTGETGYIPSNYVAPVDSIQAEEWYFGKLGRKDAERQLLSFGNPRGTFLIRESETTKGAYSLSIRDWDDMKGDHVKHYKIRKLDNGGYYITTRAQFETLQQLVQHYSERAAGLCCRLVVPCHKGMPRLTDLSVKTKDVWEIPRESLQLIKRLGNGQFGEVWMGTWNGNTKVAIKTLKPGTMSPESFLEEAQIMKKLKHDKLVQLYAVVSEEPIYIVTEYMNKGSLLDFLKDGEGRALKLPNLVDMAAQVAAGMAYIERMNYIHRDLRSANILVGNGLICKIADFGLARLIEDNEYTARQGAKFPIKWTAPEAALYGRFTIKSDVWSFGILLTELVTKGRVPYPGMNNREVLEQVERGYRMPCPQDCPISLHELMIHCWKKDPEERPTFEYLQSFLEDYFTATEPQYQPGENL

Row | Sequence | phosphorylation enrichment
34 | EEQKKYYNAVK [SCN5A_Y1494_M1498V] | 0.429
35 | HNVPIYEGYGL [ACTA1_Y168_A172G] | 20
36 | EQKKFSNAMKK [SCN5A_Y1495_Y1495S_YF] | 0.293
37 | SDFFAYSPVQE [H6PD_Y449_R453Q_YF] | 0.489
38 | KKGIVYIFNGR [ITGAV_Y404] | 0.452
39 | DNEYAYLKAII [HNF4A_Y288] | 0.615
40 | GQAPGYSFTAA [CYCS_Y47_YF] | 0.393
41 | KFDLMYAKHAF [TUBA1A_Y399_R402H] | 0.435
42 | RGEKQYLAAPL [ALOX12_Y295] | 0.436
43 | PMFTKYGNGLL [RPGRIP1L_Y196_S199G] | 0.494
44 | KKFPDYIQIAR [SGMS2_Y59_M64R_YF] | 0.432
45 | RFVSRYIFNRE [HLA-DQB1_Y62_T60S_YF] | 1.05
46 | FIIFIYAMKKK [SLCO1B1_Y645_L643F_YF] | 0.848
47 | NQDRTYFERVR [SPEN_Y632_S635R_YF] | 0.419
48 | LRNIDYYRLDG [ATRX_Y2083] | 3.96
49 | ADRNHYRRYRR [YBX1_Y145_P149R] | 0.525
50 | SDMGQYQCLVF [AXL_Y115_T112M] | 2.35

Row | Sequence | phosphorylation enrichment
51 | DDLEVYLKHLL [SACS_Y3477] | 0.482
52 | PLQKIYNYNVL [SLC4A1_Y553_T552I] | 0.409
53 | LLEGKYEWQEV [CDKN1B_Y74_P69L] | 0.908
54 | STSYDYCRVPM [BST2_Y8] | 0.711
55 | GRLGEYDIDEV [SMS_Y134_V132G] | 0.789
56 | HITQVYGFYDE [PPP2CA_Y127_Q122H] | 13.2
57 | RFLERYIFNPE [HLA-DPB1_Y57_R61P_YF] | 0.557
58 | KSLFHHRQYSA [CPS1_Y1491_Y1491H] | 0.519
59 | KKKKQYKDKFL [CASK_Y708_YF] | 0.701
60 | DRLANYLEKVR [KRT40_Y103_S102N] | 0.399
61 | CGTPEYRAPEI [PRKACA_Y205_L206R] | 0.517
62 | EQYELYCEMGS [CBL_Y371] | 4.26
63 | DQLVKYGVNPG [TMPO_Y127] | 0.369
64 | CDIPRYIVSQL [MAST2_Y461] | 0.506
65 | PFTDPYFDFEI [ZC3H18_Y371_A368T_YF] | 2.06
66 | GMEIVYVFVKK [DNAI2_Y5_YF] | 0.554

tested on: AncSZ; experiment: as above

Row | Sequence | phosphorylation enrichment
67 | EEQKKYYNAVK [SCN5A_Y1494_M1498V] | 0.651
68 | HNVPIYEGYGL [ACTA1_Y168_A172G] | 1.52
69 | EQKKFSNAMKK [SCN5A_Y1495_Y1495S_YF] | 0.474
70 | SDFFAYSPVQE [H6PD_Y449_R453Q_YF] | 1.44
71 | KKGIVYIFNGR [ITGAV_Y404] | 0.768
72 | DNEYAYLKAII [HNF4A_Y288] | 1.27
73 | GQAPGYSFTAA [CYCS_Y47_YF] | 0.502
74 | KFDLMYAKHAF [TUBA1A_Y399_R402H] | 0.794
75 | RGEKQYLAAPL [ALOX12_Y295] | 0.777
76 | PMFTKYGNGLL [RPGRIP1L_Y196_S199G] | 1.28
77 | KKFPDYIQIAR [SGMS2_Y59_M64R_YF] | 0.848
78 | RFVSRYIFNRE [HLA-DQB1_Y62_T60S_YF] | 1.86
79 | FIIFIYAMKKK [SLCO1B1_Y645_L643F_YF] | 1.42
80 | NQDRTYFERVR [SPEN_Y632_S635R_YF] | 0.607
81 | LRNIDYYRLDG [ATRX_Y2083] | 1.3
82 | ADRNHYRRYRR [YBX1_Y145_P149R] | 0.619
83 | SDMGQYQCLVF [AXL_Y115_T112M] | 1.3

Row | Sequence | phosphorylation enrichment
84 | DDLEVYLKHLL [SACS_Y3477] | 1.03
85 | PLQKIYNYNVL [SLC4A1_Y553_T552I] | 0.585
86 | LLEGKYEWQEV [CDKN1B_Y74_P69L] | 2
87 | STSYDYCRVPM [BST2_Y8] | 3.77
88 | GRLGEYDIDEV [SMS_Y134_V132G] | 1.3
89 | HITQVYGFYDE [PPP2CA_Y127_Q122H] | 2.11
90 | RFLERYIFNPE [HLA-DPB1_Y57_R61P_YF] | 1.27
91 | KSLFHHRQYSA [CPS1_Y1491_Y1491H] | 0.573
92 | KKKKQYKDKFL [CASK_Y708_YF] | 0.893
93 | DRLANYLEKVR [KRT40_Y103_S102N] | 0.651
94 | CGTPEYRAPEI [PRKACA_Y205_L206R] | 1.17
95 | EQYELYCEMGS [CBL_Y371] | 3.8
96 | DQLVKYGVNPG [TMPO_Y127] | 0.553
97 | CDIPRYIVSQL [MAST2_Y461] | 1.04
98 | PFTDPYFDFEI [ZC3H18_Y371_A368T_YF] | 2.52
99 | GMEIVYVFVKK [DNAI2_Y5_YF] | 1.4

biological target: MERTK (UniProt Q12866); experiment: as above
Sequence (Q12866 whole entry, looked up): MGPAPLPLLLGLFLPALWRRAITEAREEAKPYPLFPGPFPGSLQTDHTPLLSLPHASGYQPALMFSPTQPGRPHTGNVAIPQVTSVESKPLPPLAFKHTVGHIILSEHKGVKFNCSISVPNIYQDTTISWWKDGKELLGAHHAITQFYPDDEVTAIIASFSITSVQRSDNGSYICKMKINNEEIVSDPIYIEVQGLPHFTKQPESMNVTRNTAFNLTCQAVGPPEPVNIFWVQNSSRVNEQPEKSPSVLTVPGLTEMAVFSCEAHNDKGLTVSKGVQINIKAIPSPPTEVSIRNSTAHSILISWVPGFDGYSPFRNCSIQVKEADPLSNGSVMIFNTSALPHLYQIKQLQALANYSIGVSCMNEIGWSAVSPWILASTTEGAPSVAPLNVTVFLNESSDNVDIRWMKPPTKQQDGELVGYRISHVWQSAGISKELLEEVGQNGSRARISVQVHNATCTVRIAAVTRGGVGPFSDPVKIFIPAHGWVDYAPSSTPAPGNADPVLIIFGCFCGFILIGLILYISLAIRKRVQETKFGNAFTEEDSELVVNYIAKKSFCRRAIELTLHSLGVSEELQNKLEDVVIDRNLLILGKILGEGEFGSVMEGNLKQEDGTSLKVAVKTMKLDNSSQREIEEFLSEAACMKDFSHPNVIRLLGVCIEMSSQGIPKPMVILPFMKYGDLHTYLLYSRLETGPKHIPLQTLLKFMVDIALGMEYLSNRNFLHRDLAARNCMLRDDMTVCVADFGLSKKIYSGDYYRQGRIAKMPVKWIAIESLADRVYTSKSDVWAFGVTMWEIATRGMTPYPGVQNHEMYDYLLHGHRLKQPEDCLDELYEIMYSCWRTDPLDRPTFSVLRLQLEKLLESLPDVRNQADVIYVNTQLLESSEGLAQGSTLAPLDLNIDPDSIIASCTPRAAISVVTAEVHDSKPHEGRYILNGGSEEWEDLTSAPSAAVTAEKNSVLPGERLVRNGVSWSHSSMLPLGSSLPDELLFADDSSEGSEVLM

Row | Sequence | phosphorylation enrichment
100 | EEQKKYYNAVK [SCN5A_Y1494_M1498V] | 0.426
101 | HNVPIYEGYGL [ACTA1_Y168_A172G] | 10.9
102 | EQKKFSNAMKK [SCN5A_Y1495_Y1495S_YF] | 0.326
103 | SDFFAYSPVQE [H6PD_Y449_R453Q_YF] | 0.645
104 | KKGIVYIFNGR [ITGAV_Y404] | 0.428
105 | DNEYAYLKAII [HNF4A_Y288] | 0.603
106 | GQAPGYSFTAA [CYCS_Y47_YF] | 0.389
107 | KFDLMYAKHAF [TUBA1A_Y399_R402H] | 0.408
108 | RGEKQYLAAPL [ALOX12_Y295] | 0.377
109 | PMFTKYGNGLL [RPGRIP1L_Y196_S199G] | 0.518
110 | KKFPDYIQIAR [SGMS2_Y59_M64R_YF] | 0.421
111 | RFVSRYIFNRE [HLA-DQB1_Y62_T60S_YF] | 0.994
112 | FIIFIYAMKKK [SLCO1B1_Y645_L643F_YF] | 1.09
113 | NQDRTYFERVR [SPEN_Y632_S635R_YF] | 0.377
114 | LRNIDYYRLDG [ATRX_Y2083] | 0.851
115 | ADRNHYRRYRR [YBX1_Y145_P149R] | 0.532
116 | SDMGQYQCLVF [AXL_Y115_T112M] | 1.84

Row | Sequence | phosphorylation enrichment
117 | DDLEVYLKHLL [SACS_Y3477] | 0.409
118 | PLQKIYNYNVL [SLC4A1_Y553_T552I] | 1.09
119 | LLEGKYEWQEV [CDKN1B_Y74_P69L] | 0.964
120 | STSYDYCRVPM [BST2_Y8] | 3.24
121 | GRLGEYDIDEV [SMS_Y134_V132G] | 0.494
122 | HITQVYGFYDE [PPP2CA_Y127_Q122H] | 2.79
123 | RFLERYIFNPE [HLA-DPB1_Y57_R61P_YF] | 0.521
124 | KSLFHHRQYSA [CPS1_Y1491_Y1491H] | 0.472
125 | KKKKQYKDKFL [CASK_Y708_YF] | 0.782
126 | DRLANYLEKVR [KRT40_Y103_S102N] | 0.41
127 | CGTPEYRAPEI [PRKACA_Y205_L206R] | 0.467
128 | EQYELYCEMGS [CBL_Y371] | 5.03
129 | DQLVKYGVNPG [TMPO_Y127] | 0.314
130 | CDIPRYIVSQL [MAST2_Y461] | 0.501
131 | PFTDPYFDFEI [ZC3H18_Y371_A368T_YF] | 0.898
132 | GMEIVYVFVKK [DNAI2_Y5_YF] | 0.481
